The values below are quoted from earlier work in PMC3128382.

This data set has as its target TbpA (Neisseria gonorrhoeae) (UniProt Q01996).
UniProt Q01996, sequence (Q01996 25-915): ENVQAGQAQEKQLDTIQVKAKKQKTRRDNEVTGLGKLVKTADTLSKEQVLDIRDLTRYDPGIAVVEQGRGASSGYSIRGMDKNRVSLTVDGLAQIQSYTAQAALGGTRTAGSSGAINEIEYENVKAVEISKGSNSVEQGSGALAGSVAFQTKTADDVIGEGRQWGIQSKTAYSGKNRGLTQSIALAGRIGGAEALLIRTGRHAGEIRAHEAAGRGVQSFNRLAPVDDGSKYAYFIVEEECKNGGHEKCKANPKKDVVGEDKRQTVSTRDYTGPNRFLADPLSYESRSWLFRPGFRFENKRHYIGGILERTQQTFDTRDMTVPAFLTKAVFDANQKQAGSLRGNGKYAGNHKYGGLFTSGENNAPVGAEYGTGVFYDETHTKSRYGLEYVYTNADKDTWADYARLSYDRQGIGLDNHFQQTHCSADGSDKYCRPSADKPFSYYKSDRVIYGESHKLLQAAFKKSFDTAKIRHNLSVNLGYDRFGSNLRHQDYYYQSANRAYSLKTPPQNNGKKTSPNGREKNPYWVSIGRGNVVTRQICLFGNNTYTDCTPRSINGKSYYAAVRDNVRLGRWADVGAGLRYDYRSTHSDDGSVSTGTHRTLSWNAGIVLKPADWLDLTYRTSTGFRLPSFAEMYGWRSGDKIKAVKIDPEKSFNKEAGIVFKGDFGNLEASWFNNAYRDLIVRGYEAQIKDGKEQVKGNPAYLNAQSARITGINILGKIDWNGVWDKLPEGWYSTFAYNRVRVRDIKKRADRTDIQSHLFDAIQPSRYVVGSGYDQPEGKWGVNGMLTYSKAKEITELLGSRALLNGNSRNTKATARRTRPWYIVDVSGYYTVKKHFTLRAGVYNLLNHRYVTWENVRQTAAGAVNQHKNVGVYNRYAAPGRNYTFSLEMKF

As to Transferrin (from UniProt P02787), the Kd is 10 nM.

The Kd is the equilibrium constant for the complex coming apart.
